The target of test [1] is T1, 재조합 인간 TIGIT-His 단백질 (recombinant human TIGIT-His protein) (human) (UniProt Q495A1).
T1 sequence (looked up): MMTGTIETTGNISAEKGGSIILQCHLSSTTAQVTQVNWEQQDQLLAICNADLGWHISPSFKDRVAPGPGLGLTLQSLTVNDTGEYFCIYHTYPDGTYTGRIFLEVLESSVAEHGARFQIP
Kind of test: SPR, chimeric antibodies; antigen not given. On the technique in general: SPR reads the build-up and loss of mass on a sensor chip optically.

In test [2] the target is T2, 인간 TIGIT (human TIGIT on cells) (human, UniProt Q495A1 22-244).
T2 construct: whole, on cells; also called hTIGIT
T2 sequence (looked up): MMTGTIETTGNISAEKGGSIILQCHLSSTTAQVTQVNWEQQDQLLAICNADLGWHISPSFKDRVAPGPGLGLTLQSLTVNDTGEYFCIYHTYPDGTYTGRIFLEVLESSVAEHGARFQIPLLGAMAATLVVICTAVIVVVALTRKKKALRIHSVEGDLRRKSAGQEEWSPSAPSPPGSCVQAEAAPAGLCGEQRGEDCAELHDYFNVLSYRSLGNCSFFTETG
Kind of test: flow cytometry on CD4 and CD8 T cells of anti-hCD3/28-activated human PBMC. In general terms: A flow cytometer gives signals particle by particle.

Test [3] addresses T3, 재조합 인간 TIGIT-His 단백질 (recombinant human TIGIT-His protein) (human, UniProt Q495A1 22-141).
T3 construct: All are treated here as one molecule; also called TIGIT-His(Sino); 항원; not shown: His tag
T3 sequence (looked up): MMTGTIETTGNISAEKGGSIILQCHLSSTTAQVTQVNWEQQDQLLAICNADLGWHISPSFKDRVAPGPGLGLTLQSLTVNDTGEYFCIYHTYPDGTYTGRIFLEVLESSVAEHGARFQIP
The test can be described thus: SPR; antigen not given.

Test [4] concerns the target T3, 재조합 인간 TIGIT-His 단백질 (recombinant human …). Kind of test: hybridoma culture medium; 도 1 is flow cytometry on anti-hCD3/28-activated human T cells, the sentence names recombinant human TIGIT-His.
Test [5] shares this target. Kind of test: method not named in the sentence (SPR of Example 7); antigen not given.
The target of test [6] is T2, 인간 TIGIT (human TIGIT on cells). Kind of test: flow cytometry on artificial effector T cells expressing TIGIT.
For test [7], the target named is T3, 재조합 인간 TIGIT-His 단백질 (recombinant human …). Kind of test: ELISA, plate coated with recombinant human TIGIT-His, as in Example 3-(1). A general note: In an ELISA, binding on a coated surface is turned into a signal by an enzyme label.
Test [8] has as its target T1, 재조합 인간 TIGIT-His 단백질 (recombinant human TIGIT-His protein) (human). Kind of test: SPR, humanized antibodies; antigen not given.

B1: chimeric-후보항체 clone 58E (antibody, V domains shown)
VH: EVQLQQSGPELVKPGASVKMSCKASGYTFTSYVMHWVKQKPGQGLEWIGYINLNNDGTKYNEKFKGKATLSSDKSSSTAYMELSSLTSEDSAVYYCARWRVYYYAMDYWGQGTSVTVSS
VL: EIVLTQSPAITAASLGQKVTITCSASSSVNYMHWYQQKSGTSPRPWIYEISKLASGVPARFSGSGSGTSYSLTISSMEAEDAAIYYCQLWNYPLITFGAGTKLELK
notes: also called chimeric 58E; 후보항체 58E
As to B1, the 결합력, fold higher than the control Oncomed-313M32 antibody in test [1] was 13 배. In addition, in test [2], the binding result is on record as “binds”.

B2: T21.09 (antibody, V domains shown)
VH: EVQLQQSGPELVKPGASVKMSCKASGYTFTSYVMHWVKQKPGQGLEWIGYINLNNDGTKYNEKFKGKATLSSDKSSSTAYMELSSLTSEDSAVYYCARWRVYYYAMDYWGQGTSVTVSS
VL: EIVLTQSPATLSLSPGERATLSCNASSSVDYVHWYQQKPGQAPRPWIYEISKLASGIPARFSGSGSGTDYTLTISSLEPEDFAVYYCQLWNYPLITFGQGTKVEIK
notes: Gene engineered variant of 58E; also called clone T21.09
Take B2: the binding result in test [3] is recorded as “binds”.

B3: clone 58E (hybridoma antibody) (antibody, V domains shown)
VH: EVQLQQSGPELVKPGASVKMSCKASGYTFTSYVMHWVKQKPGQGLEWIGYINLNNDGTKYNEKFKGKATLSSDKSSSTAYMELSSLTSEDSAVYYCARWRVYYYAMDYWGQGTSVTVSS
VL: EIVLTQSPAITAASLGQKVTITCSASSSVNYMHWYQQKSGTSPRPWIYEISKLASGVPARFSGSGSGTSYSLTISSMEAEDAAIYYCQLWNYPLITFGAGTKLELK
notes: Mouse hybridoma antibody (culture medium)
As to B3, the binding result in test [4] is reported as “binds”.

B4: T21.11 (antibody, V domains shown)
VH: QVQLVQSGAEVKKPGASVKVSCKASGYTFTSYVMHWVRQAPGQRLEWIGYINLNNDGTKYNEKFKGRATLTSDKSASTAYMELSSLRSEDTAVYYCARWRVYYYAMDYWGQGTLVTVSS
VL: EIVLTQSPAITAASLGQKVTITCNASSSVDYVHWYQQKSGTSPRPWIYEISKLASGVPARFSGSGSGTSYSLTISSMEAEDAAIYYCQLWNYPLITFGAGTKLELK
notes: Gene engineered variant of 58E: humanized 58E heavy chain, light chain T21L01; also called clone T21.11
In the case of B4, the binding result in test [3] is recorded as “binds”.

B5: T21.01 (antibody, V domains shown)
VH: EVQLQQSGPELVKPGASVKMSCKASGYTFTSYVMHWVKQKPGQGLEWIGYINLNNDGTKYNEKFKGKATLSSDKSSSTAYMELSSLTSEDSAVYYCARWRVYYYAMDYWGQGTSVTVSS
VL: EIVLTQSPAITAASLGQKVTITCNASSSVDYVHWYQQKSGTSPRPWIYEISKLASGVPARFSGSGSGTSYSLTISSMEAEDAAIYYCQLWNYPLITFGAGTKLELK
notes: Gene engineered variant of 58E; produced in Expi293F; also called clone T21.01
As for B5, the binding result in test [3] is given as “binds”.

B6: T21.13 (antibody, V domains shown)
VH: QVQLVQSGAEVKKPGASVKVSCKASGYTFTSYVMHWVRQAPGQRLEWIGYINLNNDGTKYNEKFKGRATLTSDKSASTAYMELSSLRSEDTAVYYCARWRVYYYAMDYWGQGTLVTVSS
VL: EIVLTQSPATLSLSPGERATLSCNASSSVDYVHWYQQKPGQAPRPWIYEISKLASGIPARFSGSGSGTDYTLTISSLEPEDFAVYYCQLWNYPLITFGQGTKVEIK
notes: Gene engineered variant of 58E; also called clone T21.13
As for B6, the binding result in test [3] is recorded as “binds”.

B7: T21.33 (antibody, V domains shown)
VH: QVQLVQSGAEVKKPGASVKVSCKASGYTFTSYVMHWVRQAPGQRLEWIGYINLNNDGTKYNEKFKGRATLTSDKSASTAYMELSSLRSEDTAVYYCARWRVYYYAMDYWGQGTLVTVSS
VL: EIVLTQSPATLSLSPGERATLSCNASSSVDYVHWYQQKPGQAPRPWIYEISKLASGIPARFSGSGSGTSYTLTISSLEPEDFAVYYCQLWNYPLITFGQGTKVEIK
notes: also called clone T21.33
On to B7, for which, in test [5], the binding result is on record as “binds”.

B8: 인간화 후보항체 clone 19D (antibody, V domains shown)
VH: QVQLVQSGAEVKKPGASVKVSCKASGYTFSNYVMHWVRQAPGQRLEWIGYINPYNDGTKYNEKFKGRATLTSDRSASTAYMELSSLRSEDTAVYYCARWRVNYYFDYWGQGTLVTVSS
VL: DIQLTQSPSSLSASVGDRVTITCRASSSVNYMHWYQQKPGKAPKAWISVTSNLASGVPSRFSGSGSGTDYTLTISSLQPEDFATYYCQQWSSNPPWTFGQGTKVEIK
notes: Humanized; also called 인간화 후보항체 19D; humanized 19D
For B8, the binding result in test [6] and in test [7] was “binds” in each case.

B9: chimeric-후보항체 clone 62F (antibody, V domains shown)
VH: EVQLQQSGPELVKPGASVKISCKTSGFTFTEYTMHWVKQSHGKSLEWIGGFNPNSGGSSYNQKFKGKATLTVDKSSSTAFMELRSLTSEDSAAYYCARSSYYRFDLDYWGQGTTLTVSS
VL: DIVMTQSHKFMSTSVGDRVSITCKASQDVKTAVAWYQQKPGQSPQLLIYSASFRYTGVPDRFTGSGSGADFTFTISSVQAEDLAAYYCQQHYTTPWTFGGGTKLEIK
notes: also called chimeric 62F
Regarding B9, the 결합력, fold higher than the control Oncomed-313M32 antibody in test [1] is 30 배. In test [2], the binding result is “binds”.

B10: clone 62F (hybridoma antibody) (antibody, V domains shown)
VH: EVQLQQSGPELVKPGASVKISCKTSGFTFTEYTMHWVKQSHGKSLEWIGGFNPNSGGSSYNQKFKGKATLTVDKSSSTAFMELRSLTSEDSAAYYCARSSYYRFDLDYWGQGTTLTVSS
VL: DIVMTQSHKFMSTSVGDRVSITCKASQDVKTAVAWYQQKPGQSPQLLIYSASFRYTGVPDRFTGSGSGADFTFTISSVQAEDLAAYYCQQHYTTPWTFGGGTKLEIK
notes: Mouse hybridoma antibody
For the molecule B10, the binding result in test [4] is given as “binds”.

B11: 인간화 후보항체 clone 62F (antibody, V domains shown)
VH: QVQLVQSGAEVKKPGASVKVSCKASGFTFTEYTMHWVRQAPGQGLEWIGGFNPNSGGSSYNQKFKGRATLTVDKSISTAYMELSRLRSDDTAVYYCARSSYYRFDLDYWGQGTTVTVSS
VL: DIQMTQSPSSLSASVGDRVTITCKASQDVKTAVAWYQQKPGKAPKLLIYSASFRYTGVPSRFSGSGSGADFTLTISSLQPEDFATYYCQQHYTTPWTFGQGTKVEIK
notes: Humanized; also called 인간화 후보항체 62F; hu62F
For B11, the 결합력, fold higher than humanized clone 19D in test [8] is 33 배. Besides, in test [6], the binding result is “binds”.

B12: chimeric-후보항체 clone 63F (antibody, V domains shown)
VH: EVQLEEFGGGLVQPGGSMKLSCVASGSTFSNYWMNWVRQSPEKGLEWVAEIRLKFNNYATHYVESVIGRFTISRDDSKSSVYLQMNNLRAEDTGIYYCTMVRRNWYFDVWGAGTTVTVSS
VL: QIVLTQSPAIMSAFPGEKVTLTCSASSSVSSSYLYWYQQKPRSSPKLWIYSTSNLASGVPARFSGSGSGTSYSLTISSMEAEDAASYFCHQWSSYPYTFGGGTKLEIK
In the case of B12, the 결합력, fold higher than the control Oncomed-313M32 antibody in test [1] was 6 배.

B13: clone 75G (hybridoma antibody) (antibody, V domains shown)
VH: EVNLEESGGGLVQPGGSMKLSCVASGVTFSNYWMNWVRQSPEKGLEWVAEIRLKFNDYATHYVESVKGRFTISRDDSESSVYLQMNNLRAEDTGIYYCTMVRRNWYFDVWGAGTTVTVSS
VL: QIVLTQSPAIMSASPGEKVTLTCSASSSVSSGYLYWYQKKPGSSPKLWIYSTSDLASGVPARFSGSGSGTFYSLTISNMEAEDAASYFCHQWSSYPYTFGGGTKLEIK
notes: as for B3
For B13, the binding result in test [4] is reported as “binds”.

B14: chimeric-후보항체 clone 75G (antibody, V domains shown)
VH: EVNLEESGGGLVQPGGSMKLSCVASGVTFSNYWMNWVRQSPEKGLEWVAEIRLKFNDYATHYVESVKGRFTISRDDSESSVYLQMNNLRAEDTGIYYCTMVRRNWYFDVWGAGTTVTVSS
VL: QIVLTQSPAIMSASPGEKVTLTCSASSSVSSGYLYWYQKKPGSSPKLWIYSTSDLASGVPARFSGSGSGTFYSLTISNMEAEDAASYFCHQWSSYPYTFGGGTKLEIK
notes: also called chimeric 75G
As for B14, the 결합력, fold higher than the control Oncomed-313M32 antibody in test [1] is 30 배. Also, the binding result in test [2] is recorded as “binds”.

B15: 인간화 후보항체 clone 63F (antibody, V domains shown)
VH: EVQLVESGGGLVQPGGSLRLSCAASGSTFSNYWMNWVRQAPGKGLEWVAEIRLKFNNYATHYVESVIGRFTISRDDSKNSVYLQMNSLKTEDTAVYYCTMVRRNWYFDVWGRGTLVTVSS
VL: EIVLTQSPATLSLSPGERATLSCSASSSVSSSYLYWYQQKPGLAPRLWIYSTSNLASGIPDRFSGSGSGTDYTLTISRLEPEDFAVYYCHQWSSYPYTFGQGTKLEIK
notes: Humanized; also called 인간화 후보항체 63F; humanized 63F
B15: the 결합력, fold higher than humanized clone 19D in test [8] was 13 배. For the same molecule, the binding result in test [6] was “binds”.

B16: 인간화 후보항체 clone 75G (antibody, V domains shown)
VH: EVQLVESGGGLVQPGGSLRLSCAASGVTFSNYWMNWVRQAPGKGLEWVAEIRLKFNDYATHYVESVKGRFTISRDDSKNSVYLQMNSLKTEDTAVYYCTMVRRNWYFDVWGRGTLVTVSS
VL: EIVLTQSPATLSLSPGERATLSCSASSSVSSGYLYWYQQKPGLAPRLWIYSTSDLASGIPDRFSGSGSGTDYTLTISRLEPEDFAVYYCHQWSSYPYTFGQGTKLEIK
notes: Humanized; also called 인간화 후보항체 75G; humanized 75G
Take B16: the 결합력, fold higher than humanized clone 19D in test [8] was 36 배. In test [6], the binding result is given as “binds”.

For the origin of these results see patent publication KR20220082776A (dated 2022).
